Experimental findings from patent US20250019463A1 (UCB, published 2025) are described below.

Assay [1] deals with rabbit TG2 (rabbit). Nature of the assay: cell-based or functional assay.
The target in assay [2] is T1, human transglutaminase type 2 (TG2) (human, UniProt P21980 2-687).
T1 sequence: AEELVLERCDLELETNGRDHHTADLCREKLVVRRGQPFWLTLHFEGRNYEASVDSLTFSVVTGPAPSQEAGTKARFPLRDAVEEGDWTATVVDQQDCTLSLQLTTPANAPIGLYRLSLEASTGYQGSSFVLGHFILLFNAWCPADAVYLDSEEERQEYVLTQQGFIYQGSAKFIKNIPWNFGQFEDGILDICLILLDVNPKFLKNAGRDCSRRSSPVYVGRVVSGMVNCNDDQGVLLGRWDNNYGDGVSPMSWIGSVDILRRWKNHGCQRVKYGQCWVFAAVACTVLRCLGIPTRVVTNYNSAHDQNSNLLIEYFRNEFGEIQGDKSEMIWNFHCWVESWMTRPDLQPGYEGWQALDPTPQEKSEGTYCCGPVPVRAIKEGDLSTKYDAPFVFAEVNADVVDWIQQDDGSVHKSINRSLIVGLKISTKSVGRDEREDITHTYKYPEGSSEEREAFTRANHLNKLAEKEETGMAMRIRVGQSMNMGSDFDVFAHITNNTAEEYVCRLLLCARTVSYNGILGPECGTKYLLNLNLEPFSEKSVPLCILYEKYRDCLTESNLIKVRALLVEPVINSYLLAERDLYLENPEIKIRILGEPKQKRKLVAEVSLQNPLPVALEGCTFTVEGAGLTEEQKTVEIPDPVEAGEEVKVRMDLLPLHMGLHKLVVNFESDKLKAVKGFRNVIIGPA
The experiment in a line: cell-based or functional assay.

B1: Zampilimab (antibody, V domains shown)
VH: EVQLLESGGGLVQPGGSLRLSCAASGFTLSTHAMSWVRQAPGKGLEWVATISSGGRSTYYPDSVKGRFTISRDNSKNTLYLQMNSLRAEDTAVYFCARLISTYWGQGTLVTVSS
VL: DITMTQSPSSLSASVGDRVTITCKASQDINSYLTWFQQKPGKAPKILIYLVNRLVDGVPSRFSGSGSGQDYALTISSLQPEDFATYYCLQYDDFPYTFGQGTKVEIK
With B1, the “IC50 against rabbit TG2 (assay not given)” value in assay [1] was 103 nM. The “IC50 against human TG2 (assay not given)” value in assay [2] is 0.25 nM.

B2: rbBB7 (antibody, V domains shown)
VH: EVQLLESGGRLVTPGGSLTLTCAASGIIFSSSAMSWVRQAPGKGLEWVATISSGGRSTYYPDSVKGRFTVSRDSSKNTLYLQMNSLRAEDTAVYYCAKLISPYWGQGTLVTVSS
VL: AIKMTQTPSSVSAAVGGTVTISCKASQDINSYLTWFQQKPGQPPKTLIYLTNRLMDGVPSRFSGSGSGQEFLLTISGLECDDAATYYCLQYVDFPYTFGGGTKVVVK
Regarding B2, the “IC50 against rabbit TG2 (assay not given)” value in assay [1] came to 8 nM. In assay [2], the “IC50 against human TG2 (assay not given)” value worked out at 0.3 nM.
